Where a chain is given by its changes, count along the chain named. Names may count otherwise.
B1: BrGTR2-A2: Brassica rapa GTR2-A2 protein, SEQ ID NO: 66 (protein, listed as Brassica rapa)
chain: MERKPLEVESTDHQKPSSAVYDGSATAVDSVEEEVQETKLVYRGWKVMPFIIGNETFEKLGIIGTLSNLLVYLTAVFNMKSITAATIINAFSGTINFGTFVAAFLCDTYFGRYKTLTVAVIACFLGSLVILLTAAVPQLHPAPCGIALTCTGPSGGQIAFLLMGLAFLVVGAGGIRPCNLAFGADQFNPKSESGKRGIDSFFNWYFFTFTFAQILSLTLVVYIQSNVSWTIGLTIPVVLMFLACVIFFAGDKLYVKIKASGSPLASIAQVITVAIKKRGLKAVKQPWVNLYNYYPLNYANSKLKYTDQFRFLDKAAILAPEDKLEADGKPTDPWKLCTMQQVEEVKCIVRVLPIWFASSIYYLTITQQMTYPVFQALQSDRRLGSGGFVIPAATYVVFLMTGMTVFIIIYDRVLVPTLRRITGIDTGITLLQRIGTGIFFAFLSLVVSGFVEERRRTFALTKPTLGMAPRKGEISSMSAMWLIPQLTLAGVAEAFGAIGQMEFYYKQFPENMRSFAGSIFYVGGGVSSYLGSFLIATVHRTTQNSAGGNWLAEDLNKGRLDLFYFMIAGILAVNFAYFLVMSRWYRYKGSDDEVTAYETNGDVIKQQDKNKV
B2: BrGTR2 (G126R): BrGTR2-A2 protein with Gly to Arg at position 126 of SEQ ID NO: 66 (protein, listed as Brassica rapa)
chain: B1 chain with G126R
B3: BrGTR2 (G145R): BrGTR2-A2 protein with Gly to Arg at position 145 of SEQ ID NO: 66 (protein, listed as Brassica rapa)
chain: B1 chain with G145R
B4: BrGTR2 (E192K): BrGTR2-A2 protein with Glu to Lys at position 192 of SEQ ID NO: 66 (protein, listed as Brassica rapa)
chain: B1 chain with E192K
B5: BrGTR2 (S359F): BrGTR2-A2 protein with Ser to Phe at position 359 of SEQ ID NO: 66 (protein, listed as Brassica rapa)
chain: B1 chain with S359F

Tested on: Xenopus oocytes
Experiment: 4-MTB uptake in Xenopus oocytes expressing wildtype or mutant BrGTR2-A2 proteins
Format: cell-based
Details: 0.5 mM 4-MTB for one hour

Molecule	4-MTB imported (pH 5, non-injected oocytes no detectable uptake)	4-MTB uptake activity of mutant BrGTR2-A2 protein versus wildtype
B1	about 2.5 nmol 4-MTB per hour per oocyte	
B2		almost no uptake activity
B3		no significant change in uptake of 4-MTB
B4		reduction in glucosinolate uptake
B5		increased uptake activity

From patent publication US20140137294A1, “GLUCOSINOLATE TRANSPORTER PROTEIN AND USES THEREOF” (UNIVERSITY OF COPENHAGEN, priority 2010, published 2014)
